In PMC3634854, “S100A12 Suppresses Pro-inflammatory, but Not Pro-Thrombotic Functions of Serum Amyloid A” (PLoS ONE, 2013):
Where “and” joins values, the source holds several entries; their conditions need not be identical. Equal values may be shown once.

Target: the molecule itself
Assay: cross-linking; S100A12 (1 µg) and SAA (1 µg), alone or together, with bis[sulfosuccinimidyl] suberate (BS3, 5 µM) in PBS, in the presence or absence of 1 mM Ca2+, 30 min at RT in the dark; 10% SDS-PAGE under non-reducing conditions, silver stain

B1: Human recombinant S100A12 (natural protein, UniProt P80511 1-92, looked up)
chain: MTKLEEHLEGIVNIFHQYSVRKGHFDTLSKGELKQLLTKELANTIKNIKDKAVIDEIFQGLDANQDEQVDFQEFISLVAIALKAAHYHTHKE
notes: S100A12, human, recombinant
stoichiometry N: 2 and 4
